{
  "source": "paper PMC6631030",
  "about": "“Unraveling Sugar Binding Modes to DC-SIGN by Employing Fluorinated Carbohydrates” (Molecules, 2019)",
  "proteins": {"B1": {"name": "dendritic cell-specific intercellular adhesion molecule 3-grabbing non-integrin (DC-SIGN) full extracellular domain, tetramer (domain or fragment, UniProt Q9NNX6 70-404, looked up)", "chain": "EQSRQDAIYQNLTQLKAAVGELSEKSKLQEIYQELTQLKAAVGELPEKSKLQEIYQELTRLKAAVGELPEKSKLQEIYQELTWLKAAVGELPEKSKMQEIYQELTRLKAAVGELPEKSKQQEIYQELTRLKAAVGELPEKSKQQEIYQELTRLKAAVGELPEKSKQQEIYQELTQLKAAVERLCHPCPWEWTFFQGNCYFMSNSQRNWHDSITACKEVGAQLVVIKSAEEQNFLQLQSSRSNRFTWMGLSDLNQEGTWQWVDGSPLLPSFKQYWNRGEPNNVGEEDCAEFSGNGWNDDKCNLAKFWICKKSAASCSRDEEQFLSPAPATPNPPPA", "notes": "DC-SIGN, full extracellular domain (ECD), residues 70-404; the fragment was inserted in pET15b via NdeI and BamHI, and the protein was purified on mannose-Sepharose, not by a tag; The results call it 'tetrameric full-length DC-SIGN', the methods give the ECD 70-404; also called DC-SIGN tetramer; tetrameric DC-SIGN"}},
  "molecular_target": "the molecule itself",
  "assay": "negative-stain TEM; purified refolded DC-SIGN ECD, negative staining, Jeol JEM-1230",
  "data": [
    {"protein": "B1", "values": [
      {"measurement": "stoichiometry N", "value": 4}
    ]}
  ]
}
